Paper PMC8912257 (Cell Host & Microbe, 2022)
Where no end group is shown, it is not given here. [ ]: non-standard residue; d: D form. pY = N[C@@H](Cc1ccc(OP(=O)(O)O)cc1)C(=O)O

B1: pIFNGR1 5-mer peptide (Ac-pYDKPH-NH2) (peptide)
peptide: Ac-[pY]DKPH-NH2
SMILES: CC(=O)N[C@@H](Cc1ccc(OP(=O)(O)O)cc1)C(=O)N[C@@H](CC(=O)O)C(=O)N[C@@H](CCCCN)C(=O)N1CCC[C@H]1C(=O)N[C@@H](Cc1c[nH]cn1)C(N)=O
notes: also called pIFNGR 5-mer
B2: GB1-018 (natural protein)
chain: MSSKGGSSGGMWSVFIHGHDGSNKGSKTYTSGGGGMWGGGSSSGVKSGVNGGVKSGTGKI

Assays:
Details in all cases: both partners purified
[1] = molecular target: T1, Full-length STAT1 protein (unphosphorylated) (human, UniProt P42224 1-750); experiment: ITC
T1 construct: also called U-STAT1; pEXP-nHis-STAT1
T1 sequence (looked up): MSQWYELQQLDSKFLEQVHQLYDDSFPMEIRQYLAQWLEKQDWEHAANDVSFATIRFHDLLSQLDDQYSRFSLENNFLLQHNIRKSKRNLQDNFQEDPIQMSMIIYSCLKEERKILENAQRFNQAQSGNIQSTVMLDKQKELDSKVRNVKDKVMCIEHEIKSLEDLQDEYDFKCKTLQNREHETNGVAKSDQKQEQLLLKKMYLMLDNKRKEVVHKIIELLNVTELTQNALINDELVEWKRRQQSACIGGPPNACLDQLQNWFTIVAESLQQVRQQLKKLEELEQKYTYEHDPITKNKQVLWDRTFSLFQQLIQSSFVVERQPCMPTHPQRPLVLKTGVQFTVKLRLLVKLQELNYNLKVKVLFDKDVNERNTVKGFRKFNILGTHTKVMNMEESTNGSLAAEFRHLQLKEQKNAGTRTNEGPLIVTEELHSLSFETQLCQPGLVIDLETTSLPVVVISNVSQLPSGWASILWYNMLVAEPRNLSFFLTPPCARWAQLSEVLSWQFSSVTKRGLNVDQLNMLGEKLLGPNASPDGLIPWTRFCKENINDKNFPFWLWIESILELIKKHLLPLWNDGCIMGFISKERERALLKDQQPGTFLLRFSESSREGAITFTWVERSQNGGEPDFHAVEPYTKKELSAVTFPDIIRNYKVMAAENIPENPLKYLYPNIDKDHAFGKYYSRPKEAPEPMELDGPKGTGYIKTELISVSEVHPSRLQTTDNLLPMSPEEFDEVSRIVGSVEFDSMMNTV

[2] = molecular target: T1, Full-length STAT1 protein …; experiment: fluorescence polarisation
[3] = molecular target: T2, Full-length STAT1 protein (unphosphorylated, U-STAT1) (UniProt P42224 1-750); experiment: ITC
T2 construct: also called STAT1 FL
T2 sequence (looked up): T1 sequence (looked up)

Binder | Kd [1] [nM] | IC50 [2] [nM] | stoichiometry N [3] | stoichiometry N [1]
MWSVFIHGHDGSNKGSKTYTS (also: phospho, position not given here) [018 phospho 21-mer peptide] | 174 |  |  | 
MWSVFIHGHDGSNKGSKTYTS (domain or fragment) [GB1-018^T2] | 235 | 930 |  | 
MWSVFIHGHDGSNKGSKTYTS (domain or fragment) [GB1-018^T2 (minimal fragment of 018, aa 11-31, fused to GB1)] |  |  | 1.01 | 
B1 |  |  | 0.708 | 
Ac-MWSVFIHGHDGSNKGSKTYTS-NH2 [018 21-mer peptide (Ac-MWSVFIHGHDGSNKGSKTYTS-NH2)] |  |  | 1.09 | 
B2 | 291 | 1260 |  | 1.02
MWSVFIHGHDGSNKGSK (domain or fragment) [GB1-018^T3 (018^T2 without the C-terminal 28-TYTS-31, fused to GB1)] |  |  | 1 | 
MWSVFIHGHDGSNKGSK (domain or fragment) [GB1-018^T3] | > 10000 | 17800 |  | 
Ac-MWSVFIHGHDGSNKGSKT[pY]TS-NH2 [018 phospho 21-mer peptide (Ac-MWSVFIHGHDGSNKGSKT(pY)TS-NH2)] |  |  | 1.12 | 
MWSVFIHGHDGSNKGSKTYTS [018 21-mer peptide] | 321 |  |  | 
